This note sets out measurements from patent US20130171163.

Data set [1] concerns the target VEGFR2 (UniProt P35968).
Data set [2] addresses insulin-like growth-factor-1 receptor beta subunit (IGF-1Rβ) (UniProt P08069).

Sequence of insulin-like growth-factor-1 receptor beta subunit (IGF-1Rβ) (P08069 whole entry, looked up, tested part not stated): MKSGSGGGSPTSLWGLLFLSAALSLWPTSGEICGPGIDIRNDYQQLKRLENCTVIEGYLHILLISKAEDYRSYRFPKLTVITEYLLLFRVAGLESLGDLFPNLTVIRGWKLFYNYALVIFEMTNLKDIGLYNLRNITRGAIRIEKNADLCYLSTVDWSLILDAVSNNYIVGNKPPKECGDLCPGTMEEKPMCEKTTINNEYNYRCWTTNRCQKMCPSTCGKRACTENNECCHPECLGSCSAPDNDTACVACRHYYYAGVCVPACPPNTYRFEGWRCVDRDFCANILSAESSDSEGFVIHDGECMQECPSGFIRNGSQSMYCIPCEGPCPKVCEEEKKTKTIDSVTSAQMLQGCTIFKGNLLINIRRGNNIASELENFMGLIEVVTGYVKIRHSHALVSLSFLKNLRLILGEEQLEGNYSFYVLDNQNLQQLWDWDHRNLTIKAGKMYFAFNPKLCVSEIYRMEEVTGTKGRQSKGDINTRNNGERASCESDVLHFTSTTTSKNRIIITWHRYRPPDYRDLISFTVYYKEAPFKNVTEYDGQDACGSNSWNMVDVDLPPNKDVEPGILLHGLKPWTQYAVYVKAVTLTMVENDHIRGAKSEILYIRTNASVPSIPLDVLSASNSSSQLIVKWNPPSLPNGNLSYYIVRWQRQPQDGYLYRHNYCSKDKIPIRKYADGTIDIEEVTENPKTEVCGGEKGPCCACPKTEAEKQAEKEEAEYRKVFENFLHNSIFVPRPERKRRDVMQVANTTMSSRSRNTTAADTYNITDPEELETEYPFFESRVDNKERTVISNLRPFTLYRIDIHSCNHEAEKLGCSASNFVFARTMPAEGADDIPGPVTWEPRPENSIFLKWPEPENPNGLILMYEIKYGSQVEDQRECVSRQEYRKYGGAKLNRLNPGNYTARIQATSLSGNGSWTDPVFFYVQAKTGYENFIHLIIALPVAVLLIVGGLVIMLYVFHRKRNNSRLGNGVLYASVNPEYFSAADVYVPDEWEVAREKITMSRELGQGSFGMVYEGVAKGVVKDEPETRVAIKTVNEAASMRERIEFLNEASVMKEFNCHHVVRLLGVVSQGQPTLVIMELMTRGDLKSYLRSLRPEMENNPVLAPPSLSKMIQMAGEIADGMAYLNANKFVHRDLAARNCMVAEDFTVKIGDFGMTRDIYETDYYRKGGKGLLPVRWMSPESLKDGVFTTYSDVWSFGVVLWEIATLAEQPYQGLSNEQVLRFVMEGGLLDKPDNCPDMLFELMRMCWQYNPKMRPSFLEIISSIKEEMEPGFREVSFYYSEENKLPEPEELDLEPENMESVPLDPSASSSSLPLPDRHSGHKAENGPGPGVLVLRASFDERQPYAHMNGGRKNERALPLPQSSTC
Sequence of VEGFR2 (P35968 20-1356): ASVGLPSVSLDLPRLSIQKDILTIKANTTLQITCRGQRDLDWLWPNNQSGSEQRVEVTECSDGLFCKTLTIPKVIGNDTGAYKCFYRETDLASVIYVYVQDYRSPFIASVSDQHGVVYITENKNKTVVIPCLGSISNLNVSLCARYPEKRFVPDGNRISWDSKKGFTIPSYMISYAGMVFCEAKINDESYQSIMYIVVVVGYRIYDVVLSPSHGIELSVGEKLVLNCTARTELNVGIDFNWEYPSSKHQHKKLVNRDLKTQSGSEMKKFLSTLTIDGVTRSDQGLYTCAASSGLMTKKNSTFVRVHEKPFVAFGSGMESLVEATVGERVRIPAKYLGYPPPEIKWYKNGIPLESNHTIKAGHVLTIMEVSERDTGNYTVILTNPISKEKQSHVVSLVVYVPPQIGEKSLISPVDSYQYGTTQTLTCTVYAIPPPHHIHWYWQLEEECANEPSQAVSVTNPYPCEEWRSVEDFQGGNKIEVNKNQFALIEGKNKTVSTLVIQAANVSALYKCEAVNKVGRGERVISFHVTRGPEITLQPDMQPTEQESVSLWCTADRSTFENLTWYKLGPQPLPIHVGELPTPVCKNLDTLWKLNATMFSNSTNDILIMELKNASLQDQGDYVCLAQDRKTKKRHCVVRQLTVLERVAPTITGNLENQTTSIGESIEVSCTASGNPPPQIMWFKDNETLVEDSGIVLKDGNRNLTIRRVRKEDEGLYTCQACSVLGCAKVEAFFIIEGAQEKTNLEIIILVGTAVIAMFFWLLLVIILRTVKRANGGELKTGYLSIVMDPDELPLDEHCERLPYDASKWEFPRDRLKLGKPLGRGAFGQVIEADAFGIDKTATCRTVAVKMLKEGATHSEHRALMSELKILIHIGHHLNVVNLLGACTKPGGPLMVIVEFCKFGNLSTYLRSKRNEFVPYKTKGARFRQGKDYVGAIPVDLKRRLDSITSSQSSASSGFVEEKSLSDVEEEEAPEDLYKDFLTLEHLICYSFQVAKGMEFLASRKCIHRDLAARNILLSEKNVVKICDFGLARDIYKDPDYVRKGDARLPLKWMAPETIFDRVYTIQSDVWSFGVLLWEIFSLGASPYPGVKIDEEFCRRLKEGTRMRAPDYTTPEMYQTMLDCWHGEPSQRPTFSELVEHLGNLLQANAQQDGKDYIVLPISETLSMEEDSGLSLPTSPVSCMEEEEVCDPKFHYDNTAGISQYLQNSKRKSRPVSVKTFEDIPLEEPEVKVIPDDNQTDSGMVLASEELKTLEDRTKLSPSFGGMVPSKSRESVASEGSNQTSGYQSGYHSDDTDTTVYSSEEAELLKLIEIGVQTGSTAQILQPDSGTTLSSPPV

With “leukocyte antigen-related protein tyrosine phosphatase (LAR)”, the “VEGF-induced tyrosine phosphorylation of VEGFR2 in HUVECs overexpressing LAR (AdLAR)” value in data set [1] is “overexpression of LAR had no effect on VEGF-induced tyrosine phosphorylation of VEGFR2 in HUVECs”. In data set [2], the “IGF-1-induced tyrosine phosphorylation of IGF-1Rβ in HUVECs overexpressing LAR (AdLAR); IP with anti-IGF-1Rβ, Western blot with anti-phosphotyrosine” value is reported as “LAR overexpression inhibited IGF-1-induced tyrosine phosphorylation of IGF-1Rβ in a dose-dependent manner, with maximum inhibition at 2.5 MOI” and the “IGF-1Rβ autophosphorylation in IGF-1-treated HUVECs after LAR knockdown with siRNA” value is “knockdown of endogenous LAR with LAR-specific siRNA (FIGS. 3A-3B) significantly increased IGF-1Rβ activity, without an apparent effect on IGF-1Rβ expression levels, in HUVEC treated with IGF-1”.
